Columns and labels:
CD47 ECD (Homo sapiens) = CD47 ECD (Homo sapiens) (UniProt Q08722); settings: cited from earlier work
[1] = biological target: CD200R ECD (Homo sapiens) (UniProt Q8TD46); settings: cited from earlier work
[2] = biological target: CD200R ECD (Mus musculus) (UniProt Q9ES57); settings: cited from earlier work
[3] = biological target: CD200RLa ECD (Mus musculus) (UniProt Q6XJV4); settings: cited from earlier work
CD58 ECD (Homo sapiens) = CD58 ECD (Homo sapiens) (UniProt P19256); settings: cited from earlier work
[4] = biological target: (GPO)10 triple-helical peptide, GCO(GPO)10GCOG-NH2; assay: SPR
[5] = biological target: T1, Acid-soluble human collagen type I (from human placenta) (human, UniProt P02452 162-1218; P08123 80-1119); assay: SPR
SPR = biological target: the molecule itself; assay: SPR
[6] = biological target: T1, Acid-soluble human collagen type I …; assay: SPR; remark: listed apart in the source
[7] = biological target: T2, mCD200RLa/rCD4d3+4, immobilised (mouse, UniProt Q6XJV4 26-241, biotin); assay: SPR
T2 sequence (looked up): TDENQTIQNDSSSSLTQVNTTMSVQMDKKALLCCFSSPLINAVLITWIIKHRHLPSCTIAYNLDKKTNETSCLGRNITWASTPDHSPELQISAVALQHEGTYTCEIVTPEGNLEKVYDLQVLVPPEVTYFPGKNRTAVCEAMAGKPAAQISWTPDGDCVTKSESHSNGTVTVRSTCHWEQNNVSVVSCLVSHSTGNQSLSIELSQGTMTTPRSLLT

mCD200R, immobilised = biological target: T3, mCD200R, immobilised (mouse, UniProt Q9ES57 26-238); assay: SPR
T3 sequence (looked up): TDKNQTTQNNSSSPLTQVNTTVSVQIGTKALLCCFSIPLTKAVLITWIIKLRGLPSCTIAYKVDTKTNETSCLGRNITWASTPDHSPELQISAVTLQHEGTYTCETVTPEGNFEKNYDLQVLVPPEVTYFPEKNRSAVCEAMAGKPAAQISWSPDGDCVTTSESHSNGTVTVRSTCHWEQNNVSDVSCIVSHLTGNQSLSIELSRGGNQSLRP

T1 sequence (P02452 162-1218, chain 1 of 2): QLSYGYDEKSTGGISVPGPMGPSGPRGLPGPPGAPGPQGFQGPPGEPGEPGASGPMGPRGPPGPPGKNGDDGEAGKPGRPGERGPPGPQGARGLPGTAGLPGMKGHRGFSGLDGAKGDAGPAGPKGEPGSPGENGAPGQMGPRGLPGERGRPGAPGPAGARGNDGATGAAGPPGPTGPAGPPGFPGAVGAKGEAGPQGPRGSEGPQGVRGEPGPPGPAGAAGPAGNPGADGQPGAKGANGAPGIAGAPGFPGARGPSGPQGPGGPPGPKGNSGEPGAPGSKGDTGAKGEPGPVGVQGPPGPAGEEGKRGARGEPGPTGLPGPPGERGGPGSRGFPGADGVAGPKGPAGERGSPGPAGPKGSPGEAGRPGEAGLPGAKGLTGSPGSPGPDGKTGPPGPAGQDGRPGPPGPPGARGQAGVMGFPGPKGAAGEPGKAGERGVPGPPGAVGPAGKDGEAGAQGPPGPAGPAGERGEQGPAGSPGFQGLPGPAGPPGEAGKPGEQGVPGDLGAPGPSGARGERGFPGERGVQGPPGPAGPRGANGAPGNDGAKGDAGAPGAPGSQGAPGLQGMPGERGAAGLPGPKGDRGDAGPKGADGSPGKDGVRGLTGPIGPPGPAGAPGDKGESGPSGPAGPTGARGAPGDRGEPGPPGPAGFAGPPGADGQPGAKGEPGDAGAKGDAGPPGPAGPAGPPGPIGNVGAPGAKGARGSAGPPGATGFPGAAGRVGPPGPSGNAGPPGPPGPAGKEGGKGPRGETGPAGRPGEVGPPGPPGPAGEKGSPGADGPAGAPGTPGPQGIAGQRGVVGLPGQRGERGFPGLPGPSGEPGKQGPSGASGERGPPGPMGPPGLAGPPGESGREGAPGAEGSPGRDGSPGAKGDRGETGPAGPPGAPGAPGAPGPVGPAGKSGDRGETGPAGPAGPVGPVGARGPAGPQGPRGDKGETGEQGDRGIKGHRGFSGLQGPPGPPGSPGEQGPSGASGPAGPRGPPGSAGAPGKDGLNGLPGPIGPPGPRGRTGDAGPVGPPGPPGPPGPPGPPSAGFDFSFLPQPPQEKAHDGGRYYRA
T1 sequence (P08123 80-1119, chain 2 of 2): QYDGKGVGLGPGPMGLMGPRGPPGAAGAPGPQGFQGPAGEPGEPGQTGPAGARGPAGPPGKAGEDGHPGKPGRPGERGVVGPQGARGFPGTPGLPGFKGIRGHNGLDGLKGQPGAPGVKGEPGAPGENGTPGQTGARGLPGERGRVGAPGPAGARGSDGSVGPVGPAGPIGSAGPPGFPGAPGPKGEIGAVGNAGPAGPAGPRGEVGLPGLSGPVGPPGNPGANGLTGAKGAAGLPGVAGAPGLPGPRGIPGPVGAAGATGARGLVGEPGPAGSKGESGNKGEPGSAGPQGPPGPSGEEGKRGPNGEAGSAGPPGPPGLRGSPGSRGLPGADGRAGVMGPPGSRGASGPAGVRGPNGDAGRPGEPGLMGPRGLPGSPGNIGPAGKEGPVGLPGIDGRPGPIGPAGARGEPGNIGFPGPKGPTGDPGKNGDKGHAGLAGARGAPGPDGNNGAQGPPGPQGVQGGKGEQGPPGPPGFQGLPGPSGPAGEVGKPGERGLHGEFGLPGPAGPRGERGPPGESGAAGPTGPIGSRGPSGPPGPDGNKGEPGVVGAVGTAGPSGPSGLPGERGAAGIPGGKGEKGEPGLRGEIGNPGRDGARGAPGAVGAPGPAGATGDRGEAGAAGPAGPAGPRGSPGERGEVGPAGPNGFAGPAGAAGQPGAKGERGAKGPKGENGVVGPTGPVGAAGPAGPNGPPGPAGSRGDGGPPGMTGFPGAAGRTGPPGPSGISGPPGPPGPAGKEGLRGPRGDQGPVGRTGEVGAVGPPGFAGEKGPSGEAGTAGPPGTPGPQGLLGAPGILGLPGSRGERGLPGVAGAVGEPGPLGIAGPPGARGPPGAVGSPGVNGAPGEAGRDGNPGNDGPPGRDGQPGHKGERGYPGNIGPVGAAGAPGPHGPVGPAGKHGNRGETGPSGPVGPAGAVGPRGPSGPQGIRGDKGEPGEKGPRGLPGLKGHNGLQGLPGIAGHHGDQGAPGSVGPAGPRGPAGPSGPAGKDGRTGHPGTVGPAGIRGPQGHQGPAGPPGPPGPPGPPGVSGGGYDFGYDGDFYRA
Chain of CD200R ECD (Homo sapiens) (Q8TD46 25-265): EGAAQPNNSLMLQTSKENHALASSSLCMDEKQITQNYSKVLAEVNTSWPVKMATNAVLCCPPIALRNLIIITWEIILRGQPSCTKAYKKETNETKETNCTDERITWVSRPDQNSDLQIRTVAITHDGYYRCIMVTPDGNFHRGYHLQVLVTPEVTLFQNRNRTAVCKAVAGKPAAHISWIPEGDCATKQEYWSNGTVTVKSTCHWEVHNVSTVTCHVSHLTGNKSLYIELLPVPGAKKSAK
Chain of CD58 ECD (Homo sapiens) (P19256 29-215): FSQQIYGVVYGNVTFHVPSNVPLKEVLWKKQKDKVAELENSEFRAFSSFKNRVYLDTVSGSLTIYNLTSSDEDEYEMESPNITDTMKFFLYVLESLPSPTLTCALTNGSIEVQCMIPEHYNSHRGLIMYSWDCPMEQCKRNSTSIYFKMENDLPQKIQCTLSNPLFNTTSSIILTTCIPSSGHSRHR
Chain of CD47 ECD (Homo sapiens) (Q08722 19-323): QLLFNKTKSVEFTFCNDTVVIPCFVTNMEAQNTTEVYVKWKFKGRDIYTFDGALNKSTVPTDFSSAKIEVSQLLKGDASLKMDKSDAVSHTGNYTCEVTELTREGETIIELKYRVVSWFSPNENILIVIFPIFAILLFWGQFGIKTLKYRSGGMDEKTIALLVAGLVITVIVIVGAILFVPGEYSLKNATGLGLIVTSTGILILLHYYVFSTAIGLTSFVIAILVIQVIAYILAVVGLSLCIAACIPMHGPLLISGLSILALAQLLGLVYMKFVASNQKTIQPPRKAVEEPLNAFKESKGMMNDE

SIRPα ECD (from UniProt P78324)
Kd (CD47 ECD (Homo sapiens)): 2 µM

CD200 ECD (from UniProt P41217)
Kd [1]: 2 µM

CD200 ECD (from UniProt O54901)
Kd [2]: 4 µM | Kd [3]: > 500 µM

CD2 ECD (from UniProt P06729)
Kd (CD58 ECD (Homo sapiens)): 10 µM

B1: mLilrb4/rCD4d3+4, soluble monomeric (domain or fragment, mouse, UniProt Q64281 24-238, looked up)
chain: GHLPKPIIWAEPGSVIAAYTSVITWCQGSWEAQYYHLYKEKSVNPWDTQVPLETRNKAKFNIPSMTTSYAGIYKCYYESAAGFSEHSDAMELVMTGAYENPSLSVYPSSNVTSGVSISFSCSSSIVFGRFILIQEGKHGLSWTLDSQHQANQPSYATFVLDAVTPNHNGTFRCYGYFRNEPQVWSKPSNSLDLMISETKDQSSTPTEDGLETYQK
Kd [4]: 33 µM | Kd [5]: 39 µM

B2: mLilrb4/rCD4d3+4, biotinylated (on beads or on the chip) (domain or fragment, mouse, UniProt Q64281 24-238, looked up)
chain: GHLPKPIIWAEPGSVIAAYTSVITWCQGSWEAQYYHLYKEKSVNPWDTQVPLETRNKAKFNIPSMTTSYAGIYKCYYESAAGFSEHSDAMELVMTGAYENPSLSVYPSSNVTSGVSISFSCSSSIVFGRFILIQEGKHGLSWTLDSQHQANQPSYATFVLDAVTPNHNGTFRCYGYFRNEPQVWSKPSNSLDLMISETKDQSSTPTEDGLETYQK
modifications: biotin (biotin ligase BirA) on the sequence near the C terminus
response (SPR): 1750 RU

B3: hLAIR-1/rCD4d3+4, biotinylated (on beads or on the chip) (domain or fragment, human, UniProt Q6GTX8 22-165, looked up)
chain: QEEDLPRPSISAEPGTVIPLGSHVTFVCRGPVGVQTFRLERDSRSTYNDTEDVSQASPSESEARFRIDSVREGNAGLYRCIYYKPPKWSEQSDYLELLVKESSGGPDSPDTEPGSSAGPTQRPSDNSHNEHAPASQGLKAEHLY
modifications: biotin (biotin ligase BirA) on the sequence near the C terminus
response [6]: 2700 RU

B4: mLAIR-1/rCD4d3+4, soluble monomeric (domain or fragment, mouse, UniProt Q8BG84 22-144, looked up)
chain: QEGSLPDITIFPNSSLMISQGTFVTVVCSYSDKHDLYNMVRLEKDGSTFMEKSTEPYKTEDEFEIGPVNETITGHYSCIYSKGITWSERSKTLELKVIKENVIQTPAPGPTSDTSWLKTYSIY
Kd [4]: 10 µM | Kd [5]: 18 µM

B5: mCD200/rCD4d3+4 coupled beads (domain or fragment, mouse, UniProt O54901 31-232, looked up)
chain: QVEVVTQDERKALHTTASLRCSLKTSQEPLIVTWQKKKAVSPENMVTYSKTHGVVIQPAYKDRINVTELGLWNSSITFWNTTLEDEGCYMCLFNTFGSQKVSGTACLTLYVQPIVHLHYNYFEDHLNITCSATARPAPAISWKGTGTGIENSTESHFHSNGTTSVTSILRVKDPKTQVGKEVICQVLYLGNVIDYKQSLDKG
modifications: biotin on the tag that can be biotinylated
response [7]: > 3000 RU | response (mCD200R, immobilised): > 3000 RU
